What was measured:
[1] = biological target: HIV integrase N-terminal and catalytic core domains, IN(NTD-CCD)(F185K) (HIV); assay: SEC-MALS
[2] = biological target: LEDGF/p75 integrase binding domain, LEDGF(IBD) (human); assay: SEC-MALS
[3] = biological target: LEDGF/p75 integrase binding domain, LEDGF(IBD) (human); assay: AUC
[4] = biological target: HIV integrase, full-length, IN(tetra) (C56S, F139D, F185H, C280S) (HIV); assay: AUC
[5] = biological target: LEDGF/p75 C-terminal fragment, LEDGF(Cterm), residues 325-530 (human) (UniProt O75475); assay: SEC-MALS
[6] = biological target: IN(tetra)·LEDGF(IBD) complex of two IN and one LEDGF(IBD), IN2LEDGF1 (HIV | human); assay: AUC
[7] = biological target: T1, LEDGF/p75 C-terminal fragment, LEDGF(Cterm), residues 325-530 (human, UniProt O75475 325-530); assay: SEC-MALS
T1 sequence: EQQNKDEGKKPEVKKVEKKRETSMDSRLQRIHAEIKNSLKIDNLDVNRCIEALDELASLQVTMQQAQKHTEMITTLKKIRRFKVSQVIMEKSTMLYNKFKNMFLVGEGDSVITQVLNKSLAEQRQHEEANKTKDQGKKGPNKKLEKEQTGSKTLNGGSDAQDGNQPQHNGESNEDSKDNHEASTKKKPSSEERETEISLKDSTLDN

## HIV integrase N-terminal and catalytic core domains, IN(NTD-CCD)(F185K) (domain or fragment)
[1]
  stoichiometry N: 2
[2]
  stoichiometry N: 1 IN:LEDGF

## HIV integrase, full-length, IN(tetra) (C56S, F139D, F185H, C280S) (enzyme)
[2]
  stoichiometry N: 2 IN:LEDGF
[3]
  stoichiometry N: 2 IN:LEDGF
[4]
  Kd: 9.3 µM

## HIV integrase, full-length, IN(tetra)(D116N) (enzyme)
[5]
  stoichiometry N: 1 IN:LEDGF

## IN(tetra)·LEDGF(IBD) complex of two IN and one LEDGF(IBD), IN2LEDGF1
[6]
  Kd: 8.9 µM

B1: HIV integrase, full-length, wild-type (enzyme)
chain: FLDGIDKAQEEHEKYHSNWRAMASDFNLPPVVAKEIVASCDKCQLKGEAMHGQVDCSPGIWQLDCTHLEGKVILVAVHVASGYIEAEVIPAETGQETAYFLLKLAGRWPVKTVHTDNGSNFTSTTVKAACWWAGIKQEFGIPYNPQSQGVIESMNKELKKIIGQVRDQAEHLKTAVQMAVFIHNFKRKGGIGGYSAGERIVDIIATDIQTKELQKQITKIQNFRVYYRDSRDPVWKGPAKLLWKGEGAVVIQDNSDIKVVPRRKAKIIRDYGKQMAGDDCVASRQDED
[7]
  stoichiometry N: 1 IN:LEDGF

From paper PMC2888443 (The Journal of Biological Chemistry, 2010)
